Reference: paper PMC10786891, “Massively parallel profiling of RNA-targeting CRISPR-Cas13d”

T1: EsCas13d, nuclease-dead (Eubacterium siraeum, UniProt B0MS50, R295A;H300A;R849A;H854A)
T1 sequence: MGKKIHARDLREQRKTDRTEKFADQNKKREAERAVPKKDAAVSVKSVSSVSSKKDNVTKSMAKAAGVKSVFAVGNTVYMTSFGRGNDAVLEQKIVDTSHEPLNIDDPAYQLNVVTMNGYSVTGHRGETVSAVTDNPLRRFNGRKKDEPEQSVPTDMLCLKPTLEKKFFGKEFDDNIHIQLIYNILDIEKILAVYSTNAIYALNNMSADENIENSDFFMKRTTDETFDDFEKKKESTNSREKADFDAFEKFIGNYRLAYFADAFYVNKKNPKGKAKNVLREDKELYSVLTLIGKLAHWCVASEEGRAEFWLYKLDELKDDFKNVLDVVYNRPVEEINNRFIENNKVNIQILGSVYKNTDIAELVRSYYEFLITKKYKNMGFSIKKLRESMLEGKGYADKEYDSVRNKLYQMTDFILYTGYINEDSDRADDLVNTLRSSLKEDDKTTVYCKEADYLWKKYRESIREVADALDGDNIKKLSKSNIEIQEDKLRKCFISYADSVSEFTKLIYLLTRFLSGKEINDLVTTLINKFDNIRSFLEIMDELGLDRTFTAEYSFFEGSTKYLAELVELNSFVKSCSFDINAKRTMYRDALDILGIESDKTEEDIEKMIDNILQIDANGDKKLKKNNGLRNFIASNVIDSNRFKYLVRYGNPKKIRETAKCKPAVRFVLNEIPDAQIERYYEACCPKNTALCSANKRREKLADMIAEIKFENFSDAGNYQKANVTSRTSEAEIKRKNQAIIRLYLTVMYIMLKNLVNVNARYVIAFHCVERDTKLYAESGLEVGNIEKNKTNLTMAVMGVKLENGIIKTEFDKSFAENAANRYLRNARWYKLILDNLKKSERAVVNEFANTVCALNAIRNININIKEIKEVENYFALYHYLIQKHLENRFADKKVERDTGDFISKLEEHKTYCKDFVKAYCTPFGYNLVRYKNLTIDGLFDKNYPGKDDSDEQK

B1: target 1 MT 5'PFS AGG 3'PFS AGC (mixed)
RNA 1: CACCCGUGCAAAAAUGCAGGGGUCUAAAACUGAGCGGAUAACCUCUCUAUGG
RNA 2: GGGAAUGGAUCCACAUCUACGAAUUCAGGCCAUAGAGAGGUUAUCCGCUCAAGCAGAUCGGAAGAGCACACGU
B2: target 1 MT 5'PFS GGC 3'PFS AAU (mixed)
RNA 1: CACCCGUGCAAAAAUGCAGGGGUCUAAAACUGAGCGGAUAACCUCUCUAUGG
RNA 2: GGGAAUGGAUCCACAUCUACGAAUUCGGCCCAUAGAGAGGUUAUCCGCUCAAAUAGAUCGGAAGAGCACACGU
B3: target 1 MT 5'PFS GGC 3'PFS AAA (mixed)
RNA 1: CACCCGUGCAAAAAUGCAGGGGUCUAAAACUGAGCGGAUAACCUCUCUAUGG
RNA 2: GGGAAUGGAUCCACAUCUACGAAUUCGGCCCAUAGAGAGGUUAUCCGCUCAAAAAGAUCGGAAGAGCACACGU
B4: target 1 MT 5'PFS GGC 3'PFS AAC (mixed)
RNA 1: CACCCGUGCAAAAAUGCAGGGGUCUAAAACUGAGCGGAUAACCUCUCUAUGG
RNA 2: GGGAAUGGAUCCACAUCUACGAAUUCGGCCCAUAGAGAGGUUAUCCGCUCAAACAGAUCGGAAGAGCACACGU
B5: target 1 MT 5'PFS ACA 3'PFS UUU (mixed)
RNA 1: CACCCGUGCAAAAAUGCAGGGGUCUAAAACUGAGCGGAUAACCUCUCUAUGG
RNA 2: GGGAAUGGAUCCACAUCUACGAAUUCACACCAUAGAGAGGUUAUCCGCUCAUUUAGAUCGGAAGAGCACACGU
B6: target 1 MT 5'PFS CUG 3'PFS ACU (mixed)
RNA 1: CACCCGUGCAAAAAUGCAGGGGUCUAAAACUGAGCGGAUAACCUCUCUAUGG
RNA 2: GGGAAUGGAUCCACAUCUACGAAUUCCUGCCAUAGAGAGGUUAUCCGCUCAACUAGAUCGGAAGAGCACACGU
B7: target 1 MT 5'PFS CCU 3'PFS ACG (mixed)
RNA 1: CACCCGUGCAAAAAUGCAGGGGUCUAAAACUGAGCGGAUAACCUCUCUAUGG
RNA 2: GGGAAUGGAUCCACAUCUACGAAUUCCCUCCAUAGAGAGGUUAUCCGCUCAACGAGAUCGGAAGAGCACACGU
B8: target 1 U10G,U19C (mixed)
RNA 1: CACCCGUGCAAAAAUGCAGGGGUCUAAAACUGAGCGGAUAACCUCUCUAUGG
RNA 2: GGGAAUGGAUCCACAUCUACGAAUUCGUACCACAGAGAGGUGAUCCGCUCACCGAGAUCGGAAGAGCACACGU
B9: target 1 MT 5'PFS CCU 3'PFS ACU (mixed)
RNA 1: CACCCGUGCAAAAAUGCAGGGGUCUAAAACUGAGCGGAUAACCUCUCUAUGG
RNA 2: GGGAAUGGAUCCACAUCUACGAAUUCCCUCCAUAGAGAGGUUAUCCGCUCAACUAGAUCGGAAGAGCACACGU
B10: target 1 MT 5'PFS AAG 3'PFS UGC (mixed)
RNA 1: CACCCGUGCAAAAAUGCAGGGGUCUAAAACUGAGCGGAUAACCUCUCUAUGG
RNA 2: GGGAAUGGAUCCACAUCUACGAAUUCAAGCCAUAGAGAGGUUAUCCGCUCAUGCAGAUCGGAAGAGCACACGU
B11: target 1 MT 5'PFS AGG 3'PFS AGG (mixed)
RNA 1: CACCCGUGCAAAAAUGCAGGGGUCUAAAACUGAGCGGAUAACCUCUCUAUGG
RNA 2: GGGAAUGGAUCCACAUCUACGAAUUCAGGCCAUAGAGAGGUUAUCCGCUCAAGGAGAUCGGAAGAGCACACGU
B12: target 1 MT 5'PFS GCA 3'PFS UGU (mixed)
RNA 1: CACCCGUGCAAAAAUGCAGGGGUCUAAAACUGAGCGGAUAACCUCUCUAUGG
RNA 2: GGGAAUGGAUCCACAUCUACGAAUUCGCACCAUAGAGAGGUUAUCCGCUCAUGUAGAUCGGAAGAGCACACGU
B13: target 1 MT 5'PFS GCA 3'PFS UGC (mixed)
RNA 1: CACCCGUGCAAAAAUGCAGGGGUCUAAAACUGAGCGGAUAACCUCUCUAUGG
RNA 2: GGGAAUGGAUCCACAUCUACGAAUUCGCACCAUAGAGAGGUUAUCCGCUCAUGCAGAUCGGAAGAGCACACGU
B14: target 1 MT 5'PFS AGG 3'PFS AGA (mixed)
RNA 1: CACCCGUGCAAAAAUGCAGGGGUCUAAAACUGAGCGGAUAACCUCUCUAUGG
RNA 2: GGGAAUGGAUCCACAUCUACGAAUUCAGGCCAUAGAGAGGUUAUCCGCUCAAGAAGAUCGGAAGAGCACACGU
B15: target 1 MT 5'PFS AGA 3'PFS AUA (mixed)
RNA 1: CACCCGUGCAAAAAUGCAGGGGUCUAAAACUGAGCGGAUAACCUCUCUAUGG
RNA 2: GGGAAUGGAUCCACAUCUACGAAUUCAGACCAUAGAGAGGUUAUCCGCUCAAUAAGAUCGGAAGAGCACACGU
B16: target 1 MT 5'PFS GCA 3'PFS UGA (mixed)
RNA 1: CACCCGUGCAAAAAUGCAGGGGUCUAAAACUGAGCGGAUAACCUCUCUAUGG
RNA 2: GGGAAUGGAUCCACAUCUACGAAUUCGCACCAUAGAGAGGUUAUCCGCUCAUGAAGAUCGGAAGAGCACACGU
B17: target 1 insU 3' of 22,insC 3' of 22 (mixed)
RNA 1: CACCCGUGCAAAAAUGCAGGGGUCUAAAACUGAGCGGAUAACCUCUCUAUGG
RNA 2: GGGAAUGGAUCCACAUCUACGAAUUCGUACUCCAUAGAGAGGUUAUCCGCUCACCGAGAUCGGAAGAGCACACGU
B18: target 1 MT 5'PFS GUU 3'PFS AAU (mixed)
RNA 1: CACCCGUGCAAAAAUGCAGGGGUCUAAAACUGAGCGGAUAACCUCUCUAUGG
RNA 2: GGGAAUGGAUCCACAUCUACGAAUUCGUUCCAUAGAGAGGUUAUCCGCUCAAAUAGAUCGGAAGAGCACACGU
B19: target 1 MT 5'PFS GUU 3'PFS UCG (mixed)
RNA 1: CACCCGUGCAAAAAUGCAGGGGUCUAAAACUGAGCGGAUAACCUCUCUAUGG
RNA 2: GGGAAUGGAUCCACAUCUACGAAUUCGUUCCAUAGAGAGGUUAUCCGCUCAUCGAGAUCGGAAGAGCACACGU
B20: target 1 MT 5'PFS UAU 3'PFS UCG (mixed)
RNA 1: CACCCGUGCAAAAAUGCAGGGGUCUAAAACUGAGCGGAUAACCUCUCUAUGG
RNA 2: GGGAAUGGAUCCACAUCUACGAAUUCUAUCCAUAGAGAGGUUAUCCGCUCAUCGAGAUCGGAAGAGCACACGU
B21: target 1 MT 5'PFS GGU 3'PFS CUA (mixed)
RNA 1: CACCCGUGCAAAAAUGCAGGGGUCUAAAACUGAGCGGAUAACCUCUCUAUGG
RNA 2: GGGAAUGGAUCCACAUCUACGAAUUCGGUCCAUAGAGAGGUUAUCCGCUCACUAAGAUCGGAAGAGCACACGU
B22: target 1 MT 5'PFS AGA 3'PFS AUC (mixed)
RNA 1: CACCCGUGCAAAAAUGCAGGGGUCUAAAACUGAGCGGAUAACCUCUCUAUGG
RNA 2: GGGAAUGGAUCCACAUCUACGAAUUCAGACCAUAGAGAGGUUAUCCGCUCAAUCAGAUCGGAAGAGCACACGU
B23: target 1 MT 5'PFS GUU 3'PFS UCC (mixed)
RNA 1: CACCCGUGCAAAAAUGCAGGGGUCUAAAACUGAGCGGAUAACCUCUCUAUGG
RNA 2: GGGAAUGGAUCCACAUCUACGAAUUCGUUCCAUAGAGAGGUUAUCCGCUCAUCCAGAUCGGAAGAGCACACGU
B24: target 1 MT 5'PFS AAG 3'PFS UGU (mixed)
RNA 1: CACCCGUGCAAAAAUGCAGGGGUCUAAAACUGAGCGGAUAACCUCUCUAUGG
RNA 2: GGGAAUGGAUCCACAUCUACGAAUUCAAGCCAUAGAGAGGUUAUCCGCUCAUGUAGAUCGGAAGAGCACACGU

These binders were tested against T1, EsCas13d, nuclease-dead (assay: crRNA (strand 1, pre-loaded); Mg2+; 40 mM Tris-HCl pH 7.5, 150 mM NaCl, 6 mM MgCl2, 1 mM DTT, 0.1% Tween-20, 0.2 mg/ml BSA; 25 C; 10 min per concentration, then washed). Conditions: tags: His6-TwinStrep-SUMO cleaved; N-terminal SNAP kept (SNAP-Surface 488); label: 3' end held by stalled T7 RNA polymerase.

Binder	Kd
B1	~52 nM
B2	44.5 ± 18.5 nM
B3	52 ± 14 nM
B4	39 ± 13.5 nM
B5	5.35 ± 1.15 nM
B6	5.55 ± 1.45 nM
B7	21 ± 6 nM
B8	48 ± 8 nM
B9	16.5 ± 5.5 nM
B10	51.5 ± 25 nM
B11	~110 nM
B12	35 ± 7.5 nM
B13	15.8 ± 2.95 nM
B14	37.5 ± 8.5 nM
B15	45 ± 15 nM
B16	16.4 ± 2.25 nM
B17	31.6 ± 1.2 nM
B18	22 ± 4.5 nM
B19	18.5 ± 2.7 nM
B20	29 ± 7 nM
B21	64.5 ± 27.5 nM
B22	49 ± 17 nM
B23	14.8 ± 3.65 nM
B24	35.5 ± 10.5 nM
